Data taken from US20170355757A1.

Molecular target: human C5aR1 (human) (UniProt P21730)
Experiment: cell-based or functional assay

Sequence of human C5aR1 (human) (P21730 whole entry): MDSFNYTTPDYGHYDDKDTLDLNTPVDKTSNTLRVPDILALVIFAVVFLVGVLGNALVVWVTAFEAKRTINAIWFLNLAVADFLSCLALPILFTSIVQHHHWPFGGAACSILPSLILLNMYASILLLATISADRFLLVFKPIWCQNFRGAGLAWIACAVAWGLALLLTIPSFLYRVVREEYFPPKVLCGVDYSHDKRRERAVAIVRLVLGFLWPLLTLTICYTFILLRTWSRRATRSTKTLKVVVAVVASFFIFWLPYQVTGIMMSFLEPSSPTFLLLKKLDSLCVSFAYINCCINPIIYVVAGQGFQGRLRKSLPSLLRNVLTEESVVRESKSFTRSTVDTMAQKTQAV

- EC50[M] hC5a, luciferase reporter in HEK293/Gα16/hC5aR1/NFAT-luc cells: 3.9e-10 M
Substance: hC5a (from UniProt P01031 678-751) (ligand)
